Laboratory results as given in US12104181B2, “Compositions and methods for treating viral infections targeting TRIM7” (THE BOARD OF REGENTS OF THE UNIVERSITY OF TEXAS SYSTEM, priority 2021, dated 2024).

Test system: coxsackievirus B3 (CVB3-GFP)
Type: cell-based
Details: HeLa cells, replicate R1; for Percent Infected R1: GFP-positive cells within RFP-positive gate

Molecule | Percent Infected R1 [%] | Z score R1
PCGF6: human RING type E3 ligase expressed from lentiviral vector (protein, UniProt Q9BYE7 1-350, looked up) Polycomb group RING finger …: MEGVAVVTAGSVGAAKTEGAAALPPPPPVSPPALTPAPAAGEEGPAPLSETGAPGCSGSRPPELEPERSLGRFRGRFEDEDEELEEEEELEEEEEEEEEDMSHFSLRLEGGRQDSEDEEERLINLSELTPYILCSICKGYLIDATTITECLHTFCKSCIVRHFYYSNRCPKCNIVVHQTQPLYNIRLDRQLQDIVYKLVINLEEREKKQMHDFYKERGLEVPKPAVPQPVPSSKGRSKKVLESVFRIPPELDMSLLLEFIGANEGTGHFKPLEKKFVRVSGEATIGHVEKFLRRKMGLDPACQVDIICGDHLLEQYQTLREIRRAIGDAAMQDGLLVLHYGLVVSPLKIT | 94.6 | 0.08
RFPL2: human RING type E3 ligase expressed from lentiviral vector (protein, UniProt O75678 1-378, looked up, lentiviral expression, human RING type E3 ligase expressed from lentiviral vector) Ret finger protein-like 2: MEVAELGFPETAVSQSRICLCAVLCGHWDFADMMVIRSLSLIRLEGVEGRDPVGGGNLTNKRPSCAPSPQDLSAQWKQLEDRGASSRRVDMAALFQEASSCPVCSDYLEKPMSLECGCAVCLKCINSLQKEPHGEDLLCCCSSMVSRKNKIRRNRQLERLASHIKELEPKLKKILQMNPRMRKFQVDMTLDANTANNFLLISDDLRSVRSGRIRQNRQDLAERFDVSVCILGSPRFTCGRHCWEVDVGTSTEWDLGVCRESVHRKGRIQLTTELGFWTVSLRDGGRLSATTVPLTFLFVDRKLQRVGIFLDMGMQNVSFFDAESGSHVYTFRSVSAEEPLRPFLAPSVPPNGDQGVLSICPLMNSGTTDAPVRPGEAK | 93.8 | 0.07
ZNRF1: human RING type E3 ligase expressed from lentiviral vector (protein, UniProt Q8ND25 2-227, looked up, lentiviral expression, human RING type E3 ligase expressed from lentiviral vector) E3 ubiquitin-protein ligase …: GGKQSTAARSRGPFPGVSTDDSAVPPPGGAPHFGHYRTGGGAMGLRSRSVSSVAGMGMDPSTAGGVPFGLYTPASRGTGDSERAPGGGGSASDSTYAHGNGYQETGGGHHRDGMLYLGSRASLADALPLHIAPRWFSSHSGFKCPICSKSVASDEMEMHFIMCLSKPRLSYNDDVLTKDAGECVICLEELLQGDTIARLPCLCIYHKSCIDSWFEVNRSCPEHPAD | 95.8 | 0.09
MUL1: human RING type E3 ligase expressed from lentiviral vector (protein, UniProt Q969V5 1-352, looked up, lentiviral expression, human RING type E3 ligase expressed from lentiviral vector) Mitochondrial ubiquitin …: MESGGRPSLCQFILLGTTSVVTAALYSVYRQKARVSQELKGAKKVHLGEDLKSILSEAPGKCVPYAVIEGAVRSVKETLNSQFVENCKGVIQRLTLQEHKMVWNRTTHLWNDCSKIIHQRTNTVPFDLVPHEDGVDVAVRVLKPLDSVDLGLETVYEKFHPSIQSFTDVIGHYISGERPKGIQETEEMLKVGATLTGVGELVLDNNSVRLQPPKQGMQYYLSSQDFDSLLQRQESSVRLWKVLALVFGFATCATLFFILRKQYLQRQERLRLKQMQEEFQEHEAQLLSRAKPEDRESLKSACVVCLSSFKSCVFLECGHVCSCTECYRALPEPKKCPICRQAITRVIPLYNS | 80.1 | −0.11
RNF220: human RING type E3 ligase expressed from lentiviral vector (protein, UniProt Q5VTB9 1-566, looked up) E3 ubiquitin-protein ligase …: MDLHRAAFKMENSSYLPNPLASPALMVLASTAEASRDASIPCQQPRPFGVPVSVDKDVHIPFTNGSYTFASMYHRQGGVPGTFANRDFPPSLLHLHPQFAPPNLDCTPISMLNHSGVGAFRPFASTEDRESYQSAFTPAKRLKNCHDTESPHLRFSDADGKEYDFGTQLPSSSPGSLKVDDTGKKIFAVSGLISDREASSSPEDRNDRCKKKAAALFDSQAPICPICQVLLRPSELQEHMEQELEQLAQLPSSKNSLLKDAMAPGTPKSLLLSASIKREGESPTASPHSSATDDLHHSDRYQTFLRVRANRQTRLNARIGKMKRRKQDEGQREGSCMAEDDAVDIEHENNNRFEEYEWCGQKRIRATTLLEGGFRGSGFIMCSGKENPDSDADLDVDGDDTLEYGKPQYTEADVIPCTGEEPGEAKEREALRGAVLNGGPPSTRITPEFSKWASDEMPSTSNGESSKQEAMQKTCKNSDIEKITEDSAVTTFEALKARVRELERQLSRGDRYKCLICMDSYSMPLTSIQCWHVHCEECWLRTLGAKKLCPQCNTITAPGDLRRIYL | 96.6 | 0.1
MARCH5: human RING type E3 ligase expressed from lentiviral vector (protein, UniProt Q9NX47 1-278, looked up) E3 ubiquitin-protein ligase …: MPDQALQQMLDRSCWVCFATDEDDRTAEWVRPCRCRGSTKWVHQACLQRWVDEKQRGNSTARVACPQCNAEYLIVFPKLGPVVYVLDLADRLISKACPFAAAGIMVGSIYWTAVTYGAVTVMQVVGHKEGLDVMERADPLFLLIGLPTIPVMLILGKMIRWEDYVLRLWRKYSNKLQILNSIFPGIGCPVPRIPAEANPLADHVSATRILCGALVFPTIATIVGKLMFSSVNSNLQRTILGGIAFVAIKGAFKVYFKQQQYLRQAHRKILNYPEQEEA | 91.5 | 0.04
RNF4: human RING type E3 ligase expressed from lentiviral vector (protein, UniProt P78317 1-190, looked up, lentiviral expression, human RING type E3 ligase expressed from lentiviral vector) E3 ubiquitin-protein ligase …: MSTRKRRGGAINSRQAQKRTREATSTPEISLEAEPIELVETAGDEIVDLTCESLEPVVVDLTHNDSVVIVDERRRPRRNARRLPQDHADSCVVSSDDEELSRDRDVYVTTHTPRNARDEGATGLRPSGTVSCPICMDGYSEIVQNGRLIVSTECGHVFCSQCLRDSLKNANTCPTCRKKINHKRYHPIYI | 93.3 | 0.06
RNF130: human RING type E3 ligase expressed from lentiviral vector (protein, UniProt Q86XS8 28-419, looked up) E3 ubiquitin-protein ligase …: DNASQEYYTALINVTVQEPGRGAPLTFRIDRGRYGLDSPKAEVRGQVLAPLPLHGVADHLGCDPQTRFFVPPNIKQWIALLQRGNCTFKEKISRAAFHNAVAVVIYNNKSKEEPVTMTHPGTGDIIAVMITELRGKDILSYLEKNISVQMTIAVGTRMPPKNFSRGSLVFVSISFIVLMIISSAWLIFYFIQKIRYTNARDRNQRRLGDAAKKAISKLTTRTVKKGDKETDPDFDHCAVCIESYKQNDVVRILPCKHVFHKSCVDPWLSEHCTCPMCKLNILKALGIVPNLPCTDNVAFDMERLTRTQAVNRRSALGDLAGDNSLGLEPLRTSGISPLPQDGELTPRTGEINIAVTKEWFIIASFGLLSALTLCYMIIRATASLNANEVEWF | 91.4 | 0.04
CHFR: human RING type E3 ligase expressed from lentiviral vector (protein, UniProt Q96EP1 1-664, looked up) E3 ubiquitin-protein ligase …: MERPEEGKQSPPPQPWGRLLRLGAEEGEPHVLLRKREWTIGRRRGCDLSFPSNKLVSGDHCRIVVDEKSGQVTLEDTSTSGTVINKLKVVKKQTCPLQTGDVIYLVYRKNEPEHNVAYLYESLSEKQGMTQESFEANKENVFHGTKDTSGAGAGRGADPRVPPSSPATQVCFEEPQPSTSTSDLFPTASASSTEPSPAGRERSSSCGSGGGGISPKGSGPSVASDEVSSFASALPDRKTASFSSLEPQDQEDLEPVKKKMRGDGDLDLNGQLLVAQPRRNAQTVHEDVRAAAGKPDKMEETLTCIICQDLLHDCVSLQPCMHTFCAACYSGWMERSSLCPTCRCPVERICKNHILNNLVEAYLIQHPDKSRSEEDVQSMDARNKITQDMLQPKVRRSFSDEEGSSEDLLELSDVDSESSDISQPYVVCRQCPEYRRQAAQPPHCPAPEGEPGAPQALGDAPSTSVSLTTAVQDYVCPLQGSHALCTCCFQPMPDRRAEREQDPRVAPQQCAVCLQPFCHLYWGCTRTGCYGCLAPFCELNLGDKCLDGVLNNNSYESDILKNYLATRGLTWKNMLTESLVALQRGVFLLSDYRVTGDTVLCYCCGLRSFRELTYQYRQNIPASELPVAVTSRPDCYWGRNCRTQVKAHHAMKFNHICEQTRFKN | 87.2 | −0.02
RNFT1: human RING type E3 ligase expressed from lentiviral vector (protein, UniProt Q5M7Z0 1-435, looked up, lentiviral expression, human RING type E3 ligase expressed from lentiviral vector) E3 ubiquitin-protein ligase …: MPLFLLSLPTPPSASGHERRQRPEAKTSGSEKKYLRAMQANRSQLHSPPGTGSSEDASTPQCVHTRLTGEGSCPHSGDVHIQINSIPKECAENASSRNIRSGVHSCAHGCVHSRLRGHSHSEARLTDDTAAESGDHGSSSFSEFRYLFKWLQKSLPYILILSVKLVMQHITGISLGIGLLTTFMYANKSIVNQVFLRERSSKIQCAWLLVFLAGSSVLLYYTFHSQSLYYSLIFLNPTLDHLSFWEVFWIVGITDFILKFFFMGLKCLILLVPSFIMPFKSKGYWYMLLEELCQYYRTFVPIPVWFRYLISYGEFGNVTRWSLGILLALLYLILKLLEFFGHLRTFRQVLRIFFTQPSYGVAASKRQCSDVDDICSICQAEFQKPILLICQHIFCEECMTLWFNREKTCPLCRTVISDHINKWKDGATSSHLQIY | 95.2 | 0.08
RNF150: human RING type E3 ligase expressed from lentiviral vector (protein, UniProt Q9ULK6 35-438, looked up) RING finger protein 150: EKEEWYTAFVNITYAEPAPDPGAGAAGGGGAELHTEKTECGRYGEHSPKQDARGEVVMASSAHDRLACDPNTKFAAPTRGKNWIALIPKGNCTYRDKIRNAFLQNASAVVIFNVGSNTNETITMPHAGVEDIVAIMIPEPKGKEIVSLLERNITVTMYITIGTRNLQKYVSRTSVVFVSISFIVLMIISLAWLVFYYIQRFRYANARDRNQRRLGDAAKKAISKLQIRTIKKGDKETESDFDNCAVCIEGYKPNDVVRILPCRHLFHKSCVDPWLLDHRTCPMCKMNILKALGIPPNADCMDDLPTDFEGSLGGPPTNQITGASDTTVNESSVTLDPAVRTVGALQVVQDTDPIPQEGDVIFTTNSEQEPAVSSDSDISLIMAMEVGLSDVELSTDQDCEEVKS | 91.1 | 0.03
